B1: EHEE_rd2_1257 (parent)
chain: EEERTFTNEEEARKAKKEAEKRGLRVTVTKDGTTWRVRIG

Variants of: B1
Test: folding stability dG (cDNA display proteolysis); higher = more stable
Conditions: PBS, room temperature

Going from EEERTFTNEEEARKAKKEAEKRGLRVTVTKDGCTWRVRIG to EEERTFTNEEEARKAKKEAEKRGLRVTVTKDGGTWRVRIG, the “folding stability dG” value falls from 2.5 kcal/mol to 2.28 kcal/mol.

First: EEERTFTNEEEARKAKKEAEKRGLRVTVTKDGKTWRVRIG
Second: EEERTFTNEEEARKAKKEAEKRGLRVTVTKDGSTWRVRIG
The “folding stability dG” value of the first is lower: 2.05 kcal/mol for the first, 2.15 kcal/mol for the second.

Going from EEERTFTNEEEARKAKKEAEKRGLRVTVTKDGRTWRVRIG to EEERTFTNEEEARKAKKEAEKRGLRVTVTKDGFTWRVRIG, the “folding stability dG” value rises from 1.57 kcal/mol to 2.18 kcal/mol.

First: EEERTFTNEEEARKAKKEAEKRGLRVTVTKDGTTWRVVIG
Second: EEERTFTNEEEARKAKKEAEKRGLRVTVTKDGTTWRVHIG
The “folding stability dG” value of the first is higher: 2.45 kcal/mol for the first, 1.94 kcal/mol for the second.

First: EEERTFTNEEEARKAKKEAEKRGLRVTVTKDGTTWRVAIG
Second: EEERTFTNEEEARKLKKEAEKRGLRVTVTKDGTTWRVRIG
The “folding stability dG” value of the first is lower: 1.71 kcal/mol for the first, 2.02 kcal/mol for the second.

Compared with EEERTFTNEEEARKAKKEAEKVGLRVTVTKDGTTWRVRIG, EEERTFTNEEEARKAKKEAEKTGLRVTVTKDGTTWRVRIG is lower in “folding stability dG” value: 1.45 kcal/mol for the first, 1.06 kcal/mol for the second.

Compared with EEERTFTNEEEARKAKKEAEKCGLRVTVTKDGTTWRVRIG, EEERTFTNEEEARKAKKEAEKKGLRVTVTKDGTTWRVRIG is higher in “folding stability dG” value: 1.55 kcal/mol for the first, 1.8 kcal/mol for the second.

First: MEERTFTNEEEARKAKKEAEKRGLRVTVTKDGTTWRVRIG
Second: NEERTFTNEEEARKAKKEAEKRGLRVTVTKDGTTWRVRIG
The “folding stability dG” value of the first is higher: 2.38 kcal/mol for the first, 1.87 kcal/mol for the second.

First: QEERTFTNEEEARKAKKEAEKRGLRVTVTKDGTTWRVRIG
Second: VEERTFTNEEEARKAKKEAEKRGLRVTVTKDGTTWRVRIG
The “folding stability dG” value of the first is lower: 1.94 kcal/mol for the first, 2.57 kcal/mol for the second.

Going from EEEKTFTNEEEARKAKKEAEKRGLRVTVTKDGTTWRVRIG to EEERTFTNEEEARKAKKEAEKRGLRVTVTKDGTTTRVRIG, the “folding stability dG” value falls from 1.97 kcal/mol to 0.358 kcal/mol.

Going from EEERTFTNEEEARKAKKEAEKRGLRVTVTKDGTTLRVRIG to EEERTFTNEEEARKAKKEAEKRGLRVTVTKDGTTARVRIG, the “folding stability dG” value falls from 0.579 kcal/mol to -0.238 kcal/mol.

First: EEERTFTNEEEARKAKKEAEKRGLRVTVTKDGTTERVRIG
Second: EEERTFTNEEEARKAKKEAEKRGLSVTVTKDGTTWRVRIG
The “folding stability dG” value of the first is lower: -0.181 kcal/mol for the first, 1.88 kcal/mol for the second.

Going from EEERTFTNEEEARKAKKEAEKRGLVVTVTKDGTTWRVRIG to EEERTFTNEEEARKAKKEAEKRGLGVTVTKDGTTWRVRIG, the “folding stability dG” value falls from 1.93 kcal/mol to 0.797 kcal/mol.

Going from EEERTFTNEEEARKAKKEAEKRGLQVTVTKDGTTWRVRIG to EEERTFTNEEEARKAKKEAEKRGLRVTVTKVGTTWRVRIG, the “folding stability dG” value rises from 1.89 kcal/mol to 2.27 kcal/mol.

First: EEERTFTNEEEARKAKKEAEKRGLRVTVTKEGTTWRVRIG
Second: EEERTFTNEEEARKAKKEAEKRGLRVTVTKSGTTWRVRIG
The “folding stability dG” value of the first is higher: 2.15 kcal/mol for the first, 1.72 kcal/mol for the second.

Compared with EEERTFTNEEEARKAKKEAEKRGLRVTVTLDGTTWRVRIG, EEERTFTNEEEARKAKKEAEKRGLRVTVTVDGTTWRVRIG is lower in “folding stability dG” value: 1.99 kcal/mol for the first, 1.83 kcal/mol for the second.

Compared with EEERTFTNEEEARKAKKEAEKRGLRVTVTPDGTTWRVRIG, EEERTFTNEEEARKAKKEAEKRGLRVTVTFDGTTWRVRIG is higher in “folding stability dG” value: 0.867 kcal/mol for the first, 3.53 kcal/mol for the second.

Compared with EEERTFTNEEEARKAKKEAEKRGLRVTVFKDGTTWRVRIG, EEERTFTNEEEARKAKKEAEKRGLRVTVVKDGTTWRVRIG is lower in “folding stability dG” value: 2.32 kcal/mol for the first, 2.18 kcal/mol for the second.

First: EEERTFTNEEEWRKAKKEAEKRGLRVTVTKDGTTWRVRIG
Second: EEERTFTNEEEVRKAKKEAEKRGLRVTVTKDGTTWRVRIG
The “folding stability dG” value of the first is lower: 0.906 kcal/mol for the first, 1.51 kcal/mol for the second.

Going from EEERTFTNEEEARKAKKEAEKRGLRVTWTKDGTTWRVRIG to EEERTFTNEEEARKAKKEAEKRGLRVTTTKDGTTWRVRIG, the “folding stability dG” value falls from 0.937 kcal/mol to 0.613 kcal/mol.

Compared with EEERTFTNEEEARKAKKEAEKRGLRVTITKDGTTWRVRIG, EEERTFTNEEEARKAKKEAEKRFLRVTVTKDGTTWRVRIG is lower in “folding stability dG” value: 2.71 kcal/mol for the first, 0.9 kcal/mol for the second.

Compared with EEERTFTNEEEARKAKKEAEKRALRVTVTKDGTTWRVRIG, EEERTFTNEEEARKAKKEAEKRHLRVTVTKDGTTWRVRIG is higher in “folding stability dG” value: 0.188 kcal/mol for the first, 0.993 kcal/mol for the second.

Going from EEERTFTNEEYARKAKKEAEKRGLRVTVTKDGTTWRVRIG to EEERTFTNEELARKAKKEAEKRGLRVTVTKDGTTWRVRIG, the “folding stability dG” value rises from 0.886 kcal/mol to 1.31 kcal/mol.

First: EEERTFTNEEVARKAKKEAEKRGLRVTVTKDGTTWRVRIG
Second: EEERTFTNEEPARKAKKEAEKRGLRVTVTKDGTTWRVRIG
The “folding stability dG” value of the first is higher: 0.538 kcal/mol for the first, -0.587 kcal/mol for the second.

Compared with EEERTFTNEEEARKAKKTAEKRGLRVTVTKDGTTWRVRIG, EEERTFTNEEEARKAKKIAEKRGLRVTVTKDGTTWRVRIG is higher in “folding stability dG” value: 1.33 kcal/mol for the first, 1.48 kcal/mol for the second.

Going from EEERTFTNEEEAMKAKKEAEKRGLRVTVTKDGTTWRVRIG to EEERTFTNEEEALKAKKEAEKRGLRVTVTKDGTTWRVRIG, the “folding stability dG” value falls from 3.15 kcal/mol to 2.96 kcal/mol.

First: EEERTFTNEEEARKAKKEAEKRGLRVTVTKDGTTWRVRWG
Second: EEERTFTNEEEARKAKKEAEKRGLRVTVTKDGTTWRVRYG
The “folding stability dG” value of the first is lower: 1.62 kcal/mol for the first, 1.66 kcal/mol for the second.

First: EEERTFTNEEEARKAKKEAEKRGLRVTVTKDGTTWRVRPG
Second: EEERTFTNEEEARKAIKEAEKRGLRVTVTKDGTTWRVRIG
The “folding stability dG” value of the first is lower: 0.239 kcal/mol for the first, 2.99 kcal/mol for the second.

Compared with EEERTFTNEEEARKATKEAEKRGLRVTVTKDGTTWRVRIG, EEERTFTNEEEARKACKEAEKRGLRVTVTKDGTTWRVRIG is higher in “folding stability dG” value: 1.89 kcal/mol for the first, 2.25 kcal/mol for the second.

Going from EEERTFTNEEEARKAGKEAEKRGLRVTVTKDGTTWRVRIG to EEERTFTNEEEARKAKKEMEKRGLRVTVTKDGTTWRVRIG, the “folding stability dG” value falls from 2.33 kcal/mol to 2.11 kcal/mol.

Going from EEKRTFTNEEEARKAKKEAEKRGLRVTVTKDGTTWRVRIG to EEQRTFTNEEEARKAKKEAEKRGLRVTVTKDGTTWRVRIG, the “folding stability dG” value rises from 0.758 kcal/mol to 1.44 kcal/mol.

For EEFRTFTNEEEARKAKKEAEKRGLRVTVTKDGTTWRVRIG, the “folding stability dG” value was 2 kcal/mol.

From the MegaScale stability set (Tsuboyama et al. 2023)
